Reference: a protein production outcome set (Wang et al. 2014)

Test: label from the status in PepcDB records

In the case of “MKQIRMLAQYYVDLMMKLGLVRFSMLLALALVVLAIVVQMAVTMVLHGQVESIDVIRSIFFGLLITPWAVYFLSVVVEQLEESRQRLSRLVDKLEEMRERDLKLNVQLKDNIAQLNQEIGEREKAEAERETTLEQLKIEMKEREETQIQLEQQSSFLRSFLDASPDLVFYRNEDKEFSGCNRAMELLTGKSEKQLIHLKPQDVYSEEAAEKVLETDEKVFRHNVSLTYEQWLDYPDGRKACFEIRKVPYYDRVGKRRGLMGFGRDITERKRYQDALERASRDKTTFISTISHELRTPLNGIVGLSRILLDTELTSEQEKYLKTIHVSAVTLGNIFNDIIDMDKMERRKVQLDNQPVDFTSFLADLENLSGLQAQQKGLRFVLEPSLPLPHKVITDGTRLRQILWNLISNAVKFTPQGGGVNVRVRYDEGDILHFEVEDSGIGIPEAEQDKIFAMYYQVKDSHGGKPATGTGIGLAVSRRLARNMGGDISVTSQPGKGATFTLTVHAPAIAEEVEDTLAEDDMPLPALNVLLVEDIELNVIVARSVLEKLGNSVDVAMTGKAALEMFEPGEYDLVLLDIQLPDMTGLDISRELKQRFAADELPPLVALTANVLKNKKEYLDAGMDDVLSKPLSVPALTAMIKKFWDAPDEEAQEAPAADLHKADAVLDTDMLEQYIELVGPKLINDGLAVFEKMMPGYMSVLESNLTARDQKGIVEEGHKIKGAAGSIGLRHIQQLGQQIQTPDLPAWSDNVAEWVEEMKSEWQNDVAVLKAWVAKASKK”, the protein production is reported as “failed”.
With “MNRPHSATGDRPLALVDEHAHAWSPKTARARFRKGLTGPTAGVAAGHTQANLISVPADWAYDMLLFCTRNPQPCPVLDVTDAGSWTTVLADGADLRTDLPRYRVWRDGELVDEPSDVREHWRDDLVTFLIGCSFTFEWALAAAGVPIRHVEQGRNVPMYVTSRACRPAGRLRGPMVVSMRPVPPAHLSAAIHESSLLPAVHGSPVHCGDPSALGIDDLDRPDFGEAVYREPDDIPVFWACGVTPQAAVMASRPPFALTHAPGQMFLTDARDEQYRVALEHHHHHH” the protein production was “failed”.
In the case of “MTRAPSGGTEAPPGRTARRAGWDGRCQAAGHRSRRGGLSTGGDEVSTSDSDDAGLRSFLADPAHLTLDLRTATARCVKALGLRHAVVYLVDLQQRHLVPQTAVAPSVPVDGSPAGWAYRTQSLRVEESGTGGGITAWFPLLDGAERLGVLALCETALTASSLTRGRALASLLAMVITSKRLYEDSFVRRTRTERMTLPAEMLRALLPPRTIGNGNVVSTAVLEPAYEIGGDAFDHALTETTLHVAVLDAMGHDLASGLTTTVSLAACRNARRTGADLPELVRSVDEALSSWLPDKFCTSVIAQLDLVTGVLRWANCGHPAPILIRDQRLVIDAMERDADPPMGMPSLLSPHARRTHEISLEPGDRVLMYTDGVVEARTREAKLLGLERFADYVIRATAGGELAPESLRRLIHSILAMQEGRLRDDATLLMFEWRPPS”, the protein production is reported as “failed”.
In the case of “MNNQSVDVDLITRFDNEAKLHALDSVYAIAEFDLAGKLIEANPLFCKMLGYKKEDIIQKSHTLFLPEAQRQKHDHFWHDVIKGNINAGEFQRKTQKGDIIWLHAAYTPIIDHSGRRIGVIKLALDITQEKRLMSEHRAQLDAIENAQGVIEFDKDGYITHVNKHYLILTGYEAKEILGLHHKSLCDPIYTEQADYQTFWETLHRGHPISGRFHRLGKGNHSFWIQATYSPVMDSDGNVRKIIKYAHNITQNVETEKKAHQQGIILDILLSVHDSFLLDHNLPSACDKVFERLLDVTNSSFGFIATLQEDEDGQSLYLPAISNLAWDEETLTWYRHQRRTHGGLRLRKLDNLFGHVVTHNTVVCTNSLLRQKAGRDLPPIHPALHSLLGIPITHNGKTVGMIALANRREGYDQTMIELLAPLVKTLGIIIHARLLEDERTQIEASLRFNAGHDFLTGLPNRSSFFEQASAFFLLRQQNQHADKSCLAIIDIDLFKNINDQFGHLAGDAVLKELAMLMRMSLRQEDLVARIGGEEFIILLKDVPYQTAVMAIERIRKAIEQHTLEYDRQNLNFTISAGIAAYRSDLASVEDWIQLADENLYAAKRQGRNCVK”, the protein production is reported as “failed”.
With “MDGVYVLSVKEDVPAAGILHAGDLITEIDGQSFKSSQEFIDYIHSKKVGDTVKIKYKHGNKNEEASIKLTAIDKKGTPGIGITLVDDLEHHHHHH” the protein production was “failed”.
With “MNKKTIGFFSGIAVFAIIYFLPIAGLSAKGQMDLALSLMTVVWWATQIAQPAFVGGIYLMLLIIMNVATPSQVFSSAWTGSIMWLVIGAYLIAGAVNESGLGQRIAYAFIIKFVRSWKGIVISIFALTFILALLIPHPWPRAFMIMSVITVVAETAKMPKRDLAKLGLAVFAASCPLSGVFYTGDTSLNPLAVQASGQSVNFVSYFIYMGVPMIIAAILTMFLFLFLFKPSQEVHIDVEALKQQQAQLGGMTGKEVRTIIWLIIAIALWLTSGITGLDVGWLTLIVALMMSLPVVGGILTAKSWEGVPVNVLVFLTSAIAIGNVGGVTGMNNWIAKTLIPSNLPTNIYLLAIVITVFAMIIHMFMGSVIAVMGITIPAFVAATAHMGISPLAVSLLVFSVTNLHYILPFHNLAVLVGSDPDTGGGYTQKDVMRLGIPLTAVVFVVALVEMFWFHLVGLA” the protein production was “failed”.
In the case of “MERLTSPPRLMIVSDLDETMVDHHKDPENLALLRFNSLWEDAYRHDSLLVFSTGRAQTMYKKLRKEKPLLTPDVIITSVGTEIAYGNSMVPDDNWVEILNKKWDRGIVQEETSKFPELTLQGETEQRPHKLSFNIDKSKVKAVTKELSPRLEKRGVDVKFIFSGGNAFDVLAKGGGKGQALAYLLKKLKTEGKLPINTLACGDSGNDTELFTIPNVYGVMVSNAQEELLEWYAENAKDNANIIHASERCAGGITQAIGHFKLGPNLSPRDVSDFLECKADNVNPGHEVVKFFLFYERWRRGEVENCTTYTSSLKASCHPSGVFVHPSGAEKSLRDTIDELGKYYGDKKGKKFRVWTDQVLATDTTPGTWIVKLDKWEQTGDERKCCTTTVKFTSKEGEGFVWEHVQQIWSEETEIKDDSNWII”, the protein production is reported as “failed”.
With “MSSSDGKLRYDGRVAVVTGAGAGLGREYALLFAERGAKVVVNDLGGTHSGDGASQRAADIVVDEIRKAGGEAVADYNSVIDGAKVIETAIKAFGRVDILVNNAGILRDRSLVKTSEQDWNLVNDVHLKGSFKCTQAAFPYMKKQNYGRIIMTSSNSGIYGNFGQVNYTAAKMGLIGLANTVAIEGARNNVLCNVIVPTAASRMTEGILPDILFNELKPKLIAPVVAYLCHESCEDNGSYIESAAGWATKLHMVRGKGAVLRPSLDDPVTIEYVKDVWSNVTDMSKAKHLGAIAEASGTLLEVLEKLKEGGGDAIEDAFEFNSKELITYALGIGASVKNAKDMRFLYENDADFAAIPTFFVLPGLLLQMSTDKLLSKALPNSQVDFSNILHGEQYLEIVDDLPTSGTLLTNGKVFDVMDKGSGAVVVTNSESFDESGRLLVRNQSTTFIVGAGKFGGKKDPIAGVVPLQPAPNRQPDATVQYTTSEDQAALYRLSGDKNPLHIDPQMALLAGFKTPILHGLCTLGFSVRAVLAQFADNNPALFKAVKVRFSGPVIPGQTLRVDLWKQGTRINFRTVVVETGKEVISGAYVDLKSSQAKL” the protein production was “failed”.
In the case of “MANDIDRAGVAKAYARWAPIYDLVFGKVFDSGRQSTIAVADAIGGRVLDVGVGTGLSLSDYSKTTRLCGVDISEPMLRKAHERVRTLNLSNVDVLAVMDAKNLAFPANYFDAVVAQYVITAVPDPEATLDDFIRVLKPGGELILVNHIGAESGPRKLFELAFSPIARRLGWRPEFPWQRLVNWAARHRGVELAERRPMPPMGHFSLIRYRKLLEHHHHHH”, the protein production is reported as “failed”.
With “MDRLNQIQIILVETSLSANIGSAARAMKTMGLSNLRLVRPKNPLDEQATALAAGAKNILDNAQIFNTFDAAIADCQLIIGTSARLRHLQSTLVEPRECGKLIINNTNQHKIALIFGRERIGLTNEELLKCHYHLNVPTNPEYESLNLAMAVQLACYEIRMAWLELQKKPIIQPLTEEKNYPTAAAMAHFFDHTERLYKELGFIRNDAVMLKLRRLYQRAKLEENELNLLRGMLTAVEKHRIS” the protein production was “failed”.
In the case of “MLFTQALLVTLVGIIATIDYNGPLFMIHRPLVTSAMVGLVLGDFTQGVLIGSALELTWLGVTGIGGYTPPDTISGAIIGTAFGILSGQGETAGIAIAVPIAVATQQLDVLAKTLDVYFVKKADNDAKNGDYSKIGFYHYSSLVLITLFKIVPIFLAIMLGGEYVADLFAKVPPIVMQGLNSAGALLPSIGFGMLLNMMLKKNMWVFLLIGFICSVYGGMSTIGISLVGIAVAYFYDMIGSKPQETTSSSDVEEDLDL”, the protein production is reported as “failed”.
With “SAELGLNEHHQNEVINYMRFARSKRGLRLKTVDSCFQDLKESRLVEDTFTIDEVSEVLNGLQAVVHSEVESELINTAYTNVLLLRQLFAQAEKWYLKLQTDISELENRELLEQVAEFEKAEITSSNKKPILDVTKPKLAPLNEGGTAELLNKEILRLQEENEKLKSRLKTIEIQATNALDEKSKLEKALQDLQLDQGNQKDFIKAQDLSNLENTVAALKSEFQKTLNDKTENQKSLEENLATAKHDLLRVQEQLHMAEKELEKKFQQTAAYRNMKEILTKKNDQIKDLRKRLAQYEPED” the protein production was “not failed”.
In the case of “MDIEERINLVLKKPTEEVLTVENLRHLFEIGAPLQHYIGFEISGYIHLGTGLMAGAKIADFQKAGIKTRVFLADWHSWINDKLGGDLEVIQEVALKYFKVGMEKSIEVMGGDPKKVEFVLASEILEKGDYWQTVIDISKNVTLSRVMRSITIMGRQMGEAIDFAKLIYPMMQVADIFYQGVTIAHAGMDQRKAHVIAIEVAQKLRYHPIVHEGEKLKPVAVHHHLLLGLQEPPKWPIESEEEFKEIKAQMKMSKSKPYSAVFIHDSPEEIRQKLRKAFCPAREVRYNPVLDWVEYIIFREEPTEFTVHRPAKFGGDVTYTTFEELKRDFAEGKLHPLDLKNAVAEYLINLLEPIRRYFEKHPEPLELMRSVKITR”, the protein production is reported as “not failed”.
For “MTKETDDDDNDIPIQEDDEEKNPDQDYQELLDGLLNLSGRQLLMFYWDHELTEAVREGFEVISQKWMKGIDQMWVHWNTSRATVRSESASQFRNSDRGGLGPHRNISSQKSFVQVHEELEELYGRHVSLGEVFMKTHTRADGSFVDAKAEKVAEVYKKACEEKLTEIDDDGPKTSMNSSELSTHRDLNIDDKNEIFLQSAS”, the protein production was “failed”.
In the case of “MSNHRHDHSLPSDADSRYLVAALTLLAAFMITEIITAVISGSLALLSDAGHMLSDIGAIAIALWAARLTRRRPQGSWTWGWKRAEIMSAAVNGVTLLVVAILVGIEAVRRLVTPPAVGGGLVMVIAAVGVVVNVAVAWLVARANRRSLNVEGAYQHILTDLFGFIGTLVAGLVIVTTGWTRADAIASLIICGLMLRAAWSLLSQTGRILMEVAPASLDLDEVRHHLMDLDHVRSVHDLHAWTVSSDLPALSAHIVVEDSCFADGHAPILLAQIQQCLSGHFDLDHSTLQLEPPRHAGTENQTM”, the protein production is reported as “failed”.
In the case of “VTPQGLRIVLQDDYKQHMFSRGGAELTPFFEDLLLALAPLFEQVTNPLIISGHTDAIPFKKRFGRQSNWALSASRADVARKTLVEGGMPDDRVMQVTGMSDRALLNPDEPDSSENRRIELFILTTP”, the protein production is reported as “failed”.
With “MYKGYKIGVAVPAYNEEKLIGETLKGIPPFVDRIYVVDDASKDNTSKVVEEMMRHDKRIVLIRHAKNKGVGGAIVSGWKKGLEEGMDILAVMAGDNQMDPRDLPALLDPIVEGKVDFTKGNRFLLSYDLKMSYWRRFGTFLLTILTKIASGYWHINDPQNGYVAIKADALRKIDLDKLDSGYFFENDLLIKASVANLRVVNVPVKIRYKIGEKSKIKYSKFIARTSWLLLRSFLWRIWVEYVKRRKFLGFLYLLGFTLIVTSFLIFLIYPTRLEIPLIVLLAGAAIFLGSCIKEKNLKQYLK” the protein production was “failed”.
